Measurements reported in US8691225B2, “Antibodies against the ectodomain of ErbB3 and uses thereof” (Merrimack Pharmaceuticals, Inc., priority 2007, dated 2014).

How the values were obtained:
[1] = tested on: renal (ACHN) xenograft; test: xenograft tumor growth in nude mice; type: in vivo, mouse; conditions: 600 ug Q3d versus 300 ug
[2] = tested on: phosphorylated ErbB3 (pErbB3) in AdrR ovarian xenografts; test: ErbB3 phosphorylation in AdrR ovarian xenografts in vivo; design: species or system mouse; conditions: pErbB3 in ng/mg of total protein
Method: The samples are pulverized substantially as described in Example 5 supra, with respect to FIG. 8. The BCA assay is performed substantially as set forth in the Materials and Methods section supra, and the ELISA assay is performed substantially as described in Example 5 supra with respect to FIG. 8.

[3] = tested on: COLO-357 cells; test: VEGF secretion assay (VEGF ELISA); type: cell-based, human; conditions: untreated and HRG treated COLO-357
Source text: (§1) In contrast, HRG is able to induce more than a doubling of VEGF secretion in MCF-7 and T47D cells.

[4] = tested on: MCF-7 cells; test: VEGF secretion assay (VEGF ELISA); type: cell-based, human; conditions: untreated and HRG treated MCF-7
Source text: as §1

[5] = tested on: ACHN (a renal tumor cell line) xenograft tumors; test: ACHN xenograft combination therapy; type: in vivo, mouse; conditions: Ab #6 300 μg IP every three days; erlotinib 25 mg/kg orally once daily
Method: In a first experiment, mice bearing ACHN (a renal tumor cell line) xenograft tumors are prepared by establishing tumors subcutaneously in the flanks of nude mice (Charles River Laboratories).

[6] = tested on: ACHN cells; test: CellTiter-Glo proliferation assay; type: cell-based, human; conditions: 96 hours
Method: (§2) MALME3M, ACHN and NCI/AdrR cells are seeded in 96 well tissue culture plates and grown in RPMI-1640 media supplemented with antibiotics, 2 mM L-glutamine and 10% FBS for 24 hours at 37 degrees Celsius and 5% carbon dioxide. […] Cells are grown for 96 hours at 37° C. and 5% carbon dioxide, then harvested with CellTiter-Glo® Luminescent Cell Viability Assay (Promega, G7573) and analyzed on a luminometer. Media containing no serum and antibody is used as control.

[7] = tested on: MALME-3M cells; test: CellTiter-Glo proliferation assay; type: cell-based, human; conditions: 96 hours
Method: as §2

[8] = tested on: AdrR ovarian cancer cells; test: CellTiter-Glo proliferation assay; type: cell-based, human; conditions: 96 hours
Method: as §2

[9] = target: T1, ErbB3 receptor on the surface of MALME-3M cells (Homo sapiens, UniProt P21860); test: cell surface fluorescence quenching assay (timecourse of ErbB3 downregulation); type: cell-based
T1 construct: ErbB3 expressed on MALME-3M melanoma cells; host or cells: MALME-3M melanoma cells
Method: In order to determine whether this downregulation of ErbB3 is due to internalization of the ErbB3 receptor on the surface of MALME-3M cells, a cell surface fluorescence quenching assay is preformed. MALME-3M cells are plated overnight on 6-well plates (0.2×10^6 per well) in RPMI+10% FBS. The following day, old medium is removed and cells are preincubated for 60 minutes on ice in RPMI+2% FBS containing 100 nM of Ab#6 conjugated to the fluorescent dye Alexa 488. Cells are then returned to a 37° C. incubator and incubated for 0.5 h, 2 h or 24 h. At the end of each timepoint, cells are trypsinized, washed with PBS+2% BSA+0.1% sodium azide (FACS stain buffer) and stored on ice until all samples are ready. For a Oh timepoint, cells are immediately trypsinized after the 60 minute preincubation and stored on ice. […] One set of tubes is incubated with 25 ug/ml anti-Alexa 488 antibody for 60 minutes on ice to quench any fluorescence source (i.e., Alexa 488-conjugated Ab#6) on the cell surface. […] For each sample 10,000 events are collected and analyzed with a FACSCALIBUR flow cytometer. This protocol gives an indication of what proportion of AB #6 (as measured by fluorescence) remains on the cell surface (indicated by the differential between the fluorescence of the quenched and unquenched cells at each timepoint) and how much is internalized (indicated by the level of fluorescence of quenched cells).

[10] = tested on: HB-EGF binding to AdrR cells; test: biotinylated HB-EGF binding to AdrR cells by FACS; type: cell-based, human; conditions: 12.5 μM antibodies, 200 nM HB-EGF
Method: After 30 minutes, 50 μl of 400 nM biotinylated HB-EGF is added to the cells and incubated for another 30 minutes on ice. This yields a final concentration of 12.5 μM antibodies and 200 nM HB-EGF. Cells are then washed twice with 500 μl BD stain buffer and incubated with 100 μl of a 1:200 dilution of streptavidin-PE (PE=phycoerythrin) (Invitrogen) in BD stain buffer for 45 minutes. Finally, cells are washed twice, resuspended in 300 μl of BD stain buffer and analyzed in a FACSCALIBUR flow cytometer. As a positive control, 1×10^5 AdrR cells are incubated with 200 nM HB-EGF for 30 minutes on ice, washed twice and incubated with a 1:200 dilution of streptavidin-PE for 45 minutes. To assess background staining from the streptavidin-PE conjugate, cells are incubated with 100 μl of a 1:200 dilution of streptavidin-PE only for 45 minutes.

B1: Ab #6: human anti-ErbB3 antibody from Fab-phage library, CDRs SEQ ID NOs:7-12; used as IgG1 and IgG2 isotypes; in phase I trials as MM-121 (antibody, V domains shown)
VH: EVQLLESGGGLVQPGGSLRLSCAASGFTFSHYVMAWVRQAPGKGLEWVSSISSSGGWTLYADSVKGRFTISRDNSKNTLYLQMNSLRAEDTAVYYCTRGLKMATIFDYWGQGTLVTVSS
VL: QSALTQPASVSGSPGQSITISCTGTSSDVGSYNVVSWYQQHPGKAPKLIIYEVSQRPSGVSNRFSGSKSGNTASLTISGLQTEDEADYYCCSYAGSSIFVIFGGGTKVTVL
inhibition of tumor growth [1]: further elevated | inhibition of ErbB3 phosphorylation in vivo [2]: significantly inhibited ErbB3 phosphorylation | inhibition of VEGF secretion [3]: potent inhibitory effect at high levels in all three cell lines with the highest being in COLO-357 | inhibition of VEGF secretion [4]: potent inhibitory effect at high levels in all three cell lines | inhibition of tumor growth (tumor volume) [5]: inhibit tumor growth | inhibition of proliferation [6]: about 25.4% | inhibition of proliferation [7]: about 19.6% | inhibition of proliferation [8]: about 30.5% | downregulation of cell surface ErbB3 receptors ([9]; after about 30 minutes): about 50% | downregulation of cell surface ErbB3 receptors ([9]; at about 24 hours): about 93% | inhibition of HB-EGF binding to AdrR cells [10]: does not inhibit this binding
